This note sets out measurements from publication PMC13360575.

The labels stand for the following.
B1: clone 2.1 Fab CB_01 (clonal burst) (Fab, V domains shown)
VH: EVQLQESGPSLVKPSQTLSLTCSVTGDSITSGYWNWIRKFPGNKLEYMGYISYSGSTYYNPSLKSRISFTRDTSKNQYYLQLNSVTTEDTATYYCARDFDVWGAGTTVTVSS
VL: DIVMTQSQKFMSTSVGDRVSVTCKASQNVGTNVAWSQQKPGQSPKALIYSASYRYSGVPDRFTGSGSGTDFTLTISNVQSEDLAEYFCQQYKSYPLTFGSGTKLEIK
B2: clone 2.1 Fab TA_5 (Fab, V domains shown)
VH: EVQLQESGPSLVKPSQTLSLTCSVTGASITSGYWNWIRKFPGNKLEYMGYISYSGSTYYNPSLKSRISITRDTSKNQYYLQLNSVTTEDTATYYCARDFDVWGAGTTVTVSS
VL: DIVMTQSQKFMSTSVGDRVSVTCKASQNVGTNVAWYQQKPGQSPKALIYSASYRYSGVPDRFTGSGSGTDFTLTISNVQSEDLAEYFCQQYNSYPLTFGSGTKLEIK
B3: clone 2.1 Fab TA_26 (Fab, V domains shown)
VH: EVQLQESGPSLVKPSQTLSLTCSVTGDSITSGYWNWIRKFPGNKLEYMGYISYSGSTYYNPSLKSRISITRDTSKNQYYLQLNSVTTEDTATYYCARDFDVWGAGTTVTVSS
VL: DIVMTQSQKFMSTSVGDRVSVTCKASQNVGTNVAWYQQKPGQSPKALIYSASYRYSGVPDRFTGSGSGTDFTLTISNVQSEDLAEYFCQQYDSYPLTFGSGTKLEIK
B4: clone 2.1 Fab TA_13 (Fab, V domains shown)
VH: EVQLQESGPSLVKPSQTLSLTCSVTGDSITSGYWNWIRKFPGNKLEYMGYISYSGSTYYNPSLKSRISITRDTSKNQYYLQLNSVTTEDTATYYCARDFDVWGAGTTVTVSS
VL: DIVMTQSQKFMSTSVGDRVSVTCKASQNVGTNVGWFQQKPGQSPKALIYSASYRYSGVPDRFTGSGSGTDFTLTISNVQSEDLAEYFCHQYYSYPLTFGSGTKLEIK
B5: clone 2.1 Fab TA_19 (Fab, V domains shown)
VH: EVQLQESGPSLVKPSQTLSLTCSVTGDSITSGYWNWIRKFPGNKLEYMGYISYSGSTYYNPSLKSRISITRDTSKNQYYLQLNSVTTEDTATYYCARDFDVWGAGTTVTVSS
VL: DIVMTQSQKFMSTSVGDRVSVTCKASQNVGTNVGWFQQKPGQSPKSLIYSASYRYSGVPDRFTGSGSGTDFTLTISNVQSEDLAEYFCHQYYSYPLTFGSGTKLEIK
B6: clone 2.1 Fab TA_22 (Fab, V domains shown)
VH: EVQLQESGPSLVKPSQTLSLTCSVTGDSITSGYWNWIRKFPGNKLEYMGYISYSGSTYYNPSLKSRISITRDTSKNQYYLQLNSVTTEDTATYYCARDFDVWGAGTTVTVSS
VL: DIVMTQSQKFMSTSVGDRVSVTCKASQNVGTNVAWYQQKPGQSPKALIYSASYRYSGVPDRFTGSGSGTDFTLTISNVQSEDLAEYFCQQYSSYPLTFGSGTKLEIK
B7: clone 2.1 Fab TA_25 (Fab, V domains shown)
VH: EVQLQESGPSLVKPSQTLSLTCSVTGDSITSGYWNWIRKFPGNKLEYMGYISYSGSTYYNPSLKSRISITRDTSKNQYYLQLNSVTTEDTATYYCARDFDVWGAGTTVTVSS
VL: DIVMTQSQKFMSTSVGDRVSVTCKASQNVGTNVAWYQQKPGQSPKALIYSASYRYSGVPDRFTGSGSGTDFTLTISNVQSEDLAEYFCHQYYSYPLTFGSGTKLEIK
B8: clone 2.1 Fab TA_24 (Fab, V domains shown)
VH: EVQLQESGPSLVKPSQTLSLTCSVTGDSITSGYWNWIRKFPGNKLEYMGYISYSGSTYYNPSLKSRISITRDTSKNQYYLQLNSVTTEDTATYYCARDFDVWGAGTTVTVSS
VL: DIVMTQSQKFMSTSVGDRVSVTCKASQNVGTNVAWYQQKPGQSPKALIYSASYRYSGVPDRFTGSGSGTDFTLTISNVQSEDLAEYFCQQYYSYPLTFGSGTKLEIK
B9: clone 2.1 Fab, unmutated (Fab, V domains shown)
VH: EVQLQESGPSLVKPSQTLSLTCSVTGDSITSGYWNWIRKFPGNKLEYMGYISYSGSTYYNPSLKSRISITRDTSKNQYYLQLNSVTTEDTATYYCARDFDVWGAGTTVTVSS
VL: DIVMTQSQKFMSTSVGDRVSVTCKASQNVGTNVAWYQQKPGQSPKALIYSASYRYSGVPDRFTGSGSGTDFTLTISNVQSEDLAEYFCQQYNSYPLTFGSGTKLEIK
B10: clone 2.1 Fab TA_12 (Fab, V domains shown)
VH: EVQLQESGPSLVKPSQTLSLTCSVTGDSITSGYWNWIRKFPGNKLEYMGYISYSGSTYYNPSLKSRISITRDTSKNQYYLQLNSVTTEDTATYYCARDFDVWGAGTTVTVSS
VL: DIVMTQSQKFMSTSVGDRVSVTCKASQNVGTNVAWFQQKPGQSPKALIYSASYRYSGVPDRFTGSGSGTDFTLTISNVQSEDLAEYFCQQYNSYPLTFGSGTKLEIK
B11: clone 2.1 Fab TA_14 (Fab, V domains shown)
VH: EVQLQESGPSLVKPSQTLSLTCSVTGDSITSGYWNWIRKFPGNKLEYMGYISYSGSTYYNPSLKSRISITRDTSKNQYYLQLNSVTTEDTATYYCARDFDVWGAGTTVTVSS
VL: DIVMTQSQKFMSTSVGDRVSVTCKASQNVGTNVAWYQQKPGQSPKSLIYSASYRYSGVPDRFTGSGSGTDFTLTISNVQSEDLAEYFCQQYNSYPLTFGSGTKLEIK
B12: clone 2.1 Fab TA_27 (Fab, V domains shown)
VH: EVQLQESGPSLVKPSQTLSLTCSVTGDSITSGYWNWIRKFPGNRLEYMGYISYSGSTYYNPSLKSRISITRDTSKNQYYLQLNSVTTEDTATYYCARDFDVWGAGTTVTVSS
VL: DIVMTQSQKFMSTSVGDRVSVTCKASQNVGTNVGWFQQKPGQSPKSLIYSASYRYSGVPDRFTGSGSGTDFTLTISNVQSEDLAEYFCQQYSSYPLTFGSGTKLEIK
B13: clone 2.1 Fab TA_23 (Fab, V domains shown)
VH: EVQLQESGPSLVKPSQTLSLTCSVTGDSITSGYWNWIRKFPGNKLEYMGYISYSGSTYYNPSLKSRISITRDTSKNQYYLQLNSVTTEDTATYYCARDFDVWGAGTTVTVSS
VL: DIVMTQSQKFMSTSVGDRVSVTCKASQNVGTNVAWYQQKPGQSPKALIYSASYRYSGVPDRFTGSGSGTDFTLTISNVQSEDLAEYFCHQYNSYPLTFGSGTKLEIK
B14: clone 2.1 Fab TA_16 (Fab, V domains shown)
VH: EVQLQESGPSLVKPSQTLSLTCSVTGDSITSGYWNWIRKFPGNKLEYMGYISYSGSTYYNPSLKSRISITRDTSKNQYYLQLNSVTTEDTATYYCARDFDVWGAGTTVTVSS
VL: DIVMTQSQKFMSTSVGDRVSVTCKASQNVGTNVGWYQQKPGQSPKSLIFSASYRYSGVPDRFTGSGSGTDFTLTISNVQSEDLAEYFCQQYNSYPLTFGSGTKLEIK
B15: clone 2.1 Fab TA_11 (Fab, V domains shown)
VH: EVQLQESGPSLVKPSQTLSLTCSVTGDSITSGYWNWIRKFPGNRLEYMGYISYSGSTYYNPSLKSRISITRDTSKNQYYLQLNSVTTEDTATYYCARDFDVWGAGTTVTVSS
VL: DIVMTQSQKFMSTSVGDRVSVTCKASQNVGTNVAWYQQKPGQSPKALIYSASYRYSGVPDRFTGSGSGTDFTLTISNVQSEDLAEYFCQQYNSYPLTFGSGTKLEIK
B16: clone 2.1 Fab TA_15 (Fab, V domains shown)
VH: EVQLQESGPSLVKPSQTLSLTCSVTGDSITSGYWNWIRKFPGNKLEYMGYISYSGSTYYNPSLKSRISITRDTSKNQYYLQLNSVTTEDTATYYCARDFDVWGAGTTVTVSS
VL: DIVMTQSQKFMSTSVGDRVSVTCKASQNVGTNVAWYQQKPGQSPKALIFSASYRYSGVPDRFTGSGSGTDFTLTISNVQSEDLAEYFCQQYNSYPLTFGSGTKLEIK
B17: clone 2.1 Fab CB_02 (clonal burst) (Fab, V domains shown)
VH: EVQLQESGPSLVKPSQTLSLTCSVTGDSITSGYWNWIRKFPGNKLEYMGYISYSGSTYYNPSLKSRISITRDTSKNQYYLQLNSVTTEDTATYYCGRDFDVWGAGTTVTVSS
VL: DIVMTQSQKFMSTSVGDRVSVTCKASQNVGTNVGWYQQKPGQSPKALIYSASYRYSGVPDRFTGSGSGTDFTLTISNVQSEDLAEYFCQQYNSYPLTFGSGTKLEIK
B18: 2.1^hi Fab, high-affinity variant of clone 2.1 (Fab, V domains shown)
VH: EVQLQESGPSLVKPSQTLSLTCSVTGASITSGYWNWIRKFPGNRLEYMGYISYSGGTYYNPSLKSRISITRDTSKNQYYLQLNSVTTEDTATYYCARDFDVWGAGTTVTVSS
VL: DIVMTQSQKFMSTSVGDRVSVTCKASQNVGTNVGWFQQKPGQSPKSLIYSASYRYSGVPDRFTGSGSGTDFTLTISNVQSEDLAEYFCHQYYSYPLTFGSGTKLEIK
B19: clone 2.1 Fab TA_10 (Fab, V domains shown)
VH: EVQLQESGPSLVKPSQTLSLTCSVTGDSITSGYWNWIRRFPGNKLEYMGYISYSGSTYYNPSLKSRISITRDTSKNQYYLQLNSVTTEDTATYYCARDFDVWGAGTTVTVSS
VL: DIVMTQSQKFMSTSVGDRVSVTCKASQNVGTNVAWYQQKPGQSPKALIYSASYRYSGVPDRFTGSGSGTDFTLTISNVQSEDLAEYFCQQYNSYPLTFGSGTKLEIK

In this assay the target is chicken IgY (chicken). Description: BLI; Octet, SAX (streptavidin) biosensors; recombinant Fabs against IgY; KD from a kinetic 1:1 model, global fit over multiple concentrations (partial fits averaged for 3 low-affinity Fabs). (In general: BLI is a label-free optical method that tracks binding on a fibre tip over time.)
As a reminder, the Kd is the concentration at which binding is half-saturated. A word on the koff: it is a measure of how fast the partners let go of each other. For orientation: kon means the second-order rate constant of association. Consider B1, for which the Kd is 3.77 nM, the off-rate constant (koff) turned out to be 0.000398 s⁻¹ and the association rate constant (kon) was determined as 105000 M⁻¹ s⁻¹.
Take B2: the dissociation constant Kd turned out to be 3.81 nM, the koff came out at 0.000858 s⁻¹ and the on-rate constant (kon) turned out to be 225000 M⁻¹ s⁻¹.
For the molecule B3, the Kd turned out to be 58.5 nM, the koff was 0.00803 s⁻¹ and the kon was 137000 M⁻¹ s⁻¹.
In the same order, the values of B4 are 0.549 nM, 0.000119 s⁻¹ and 216000 M⁻¹ s⁻¹.
The matching figures for B5: 0.261 nM, 8.66e-05 s⁻¹ and 331000 M⁻¹ s⁻¹.
The matching figures for B6: 14.9 nM, 0.00124 s⁻¹ and 83500 M⁻¹ s⁻¹.
Regarding B7, the dissociation constant (Kd) stood at 3.2 nM, the koff was 0.000412 s⁻¹ and the kon was 129000 M⁻¹ s⁻¹.
The matching figures for B8: 7.72 nM, 0.000911 s⁻¹ and 118000 M⁻¹ s⁻¹.
Turning to B9, the Kd was 26 nM, the koff stood at 0.00226 s⁻¹ and the kon worked out at 86700 M⁻¹ s⁻¹.
In the same order, the values of B10 are 22.7 nM, 0.00408 s⁻¹ and 180000 M⁻¹ s⁻¹.
The matching figures for B11: 6.25 nM, 0.00139 s⁻¹ and 223000 M⁻¹ s⁻¹.
The matching figures for B12: 0.28 nM, 0.000203 s⁻¹ and 724000 M⁻¹ s⁻¹.
In the case of B13, the dissociation constant (Kd) was 13.3 nM, the dissociation rate constant (koff) amounted to 0.00133 s⁻¹ and the kon turned out to be 100000 M⁻¹ s⁻¹.
The matching figures for B14: 1.49 nM, 0.000329 s⁻¹ and 221000 M⁻¹ s⁻¹.
In the same order, the values of B15 are 21.6 nM, 0.00331 s⁻¹ and 153000 M⁻¹ s⁻¹.
The matching figures for B16: 14.4 nM, 0.00168 s⁻¹ and 116000 M⁻¹ s⁻¹.
As for B17, the Kd was 0.507 nM, the off-rate (koff) is 0.000123 s⁻¹ and the kon worked out at 244000 M⁻¹ s⁻¹.
Take B18: the koff is 6.34e-05 s⁻¹ and the on-rate constant (kon) turned out to be 1.03e+06 M⁻¹ s⁻¹.
For the molecule B19, the Kd was 22.3 nM, the koff is 0.0034 s⁻¹ and the on-rate constant (kon) was 152000 M⁻¹ s⁻¹.
